Reference: article PMC9482650, “Quantitative fragmentomics allow affinity mapping of interactomes” (Nature Communications, 2022)
Values belong to the binder of their own block, whether it stands above or below them.

What was measured:
Test in all cases: holdup assay
Set-up in all cases: key: below the threshold = too weak to quantify, mostly under pKd 3.1 to 4
[1] = target: T1, NHERF3_4, Q5T2W1
T1 sequence (Q5T2W1 373-468, limits assumed, looked up): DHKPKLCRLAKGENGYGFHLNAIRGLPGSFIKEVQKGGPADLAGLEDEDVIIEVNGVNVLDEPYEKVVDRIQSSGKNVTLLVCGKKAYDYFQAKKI

[2] = target: T2, MPDZ_10, O75970
T2 sequence (O75970 1624-1722, limits assumed, looked up): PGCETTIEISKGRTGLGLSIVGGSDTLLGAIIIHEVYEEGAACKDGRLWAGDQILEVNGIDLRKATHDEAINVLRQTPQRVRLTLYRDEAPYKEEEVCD

[3] = target: NHERF4_4, Q86UT5
NHERF4_4, Q86UT5, sequence (Q86UT5 464-550): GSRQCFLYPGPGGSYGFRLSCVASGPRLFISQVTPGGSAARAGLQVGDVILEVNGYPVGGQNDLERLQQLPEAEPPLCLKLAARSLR

[4] = target: MAGI2_6, Q86UL8
MAGI2_6, Q86UL8, sequence (Q86UL8 1141-1229): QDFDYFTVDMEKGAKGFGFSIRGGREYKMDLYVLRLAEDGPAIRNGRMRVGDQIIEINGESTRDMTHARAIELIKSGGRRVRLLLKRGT

[5] = target: FRMPD2_1, Q68DX3
FRMPD2_1, Q68DX3, sequence (Q68DX3 770-861): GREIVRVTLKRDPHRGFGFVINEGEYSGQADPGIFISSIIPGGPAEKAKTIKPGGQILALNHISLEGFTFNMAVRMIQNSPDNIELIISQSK

[6] = target: NHERF2_2, Q15599
NHERF2_2, Q15599, sequence (Q15599 142-238): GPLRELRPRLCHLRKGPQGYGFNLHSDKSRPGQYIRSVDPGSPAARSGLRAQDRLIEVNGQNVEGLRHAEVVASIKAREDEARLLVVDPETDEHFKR

[7] = target: T3, DLG3_1, Q92796
T3 sequence (Q92796 125-227, limits assumed, looked up): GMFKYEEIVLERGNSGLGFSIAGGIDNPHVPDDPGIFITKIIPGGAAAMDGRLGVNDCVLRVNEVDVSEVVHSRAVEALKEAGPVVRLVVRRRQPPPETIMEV

[8] = target: DLG1_2, Q12959
DLG1_2, Q12959, sequence (Q12959 314-412): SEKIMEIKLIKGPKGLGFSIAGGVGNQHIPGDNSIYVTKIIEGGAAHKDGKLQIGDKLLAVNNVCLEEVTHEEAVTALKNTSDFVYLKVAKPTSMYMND

[9] = target: T4, DLG3_2, Q92796
T4 sequence (Q92796 221-321, limits assumed, looked up): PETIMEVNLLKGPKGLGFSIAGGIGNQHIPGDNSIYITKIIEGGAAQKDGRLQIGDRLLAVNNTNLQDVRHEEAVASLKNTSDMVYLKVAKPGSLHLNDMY

[10] = target: T5, PDZD2_2, O15018
T5 sequence (O15018 329-429, limits assumed, looked up): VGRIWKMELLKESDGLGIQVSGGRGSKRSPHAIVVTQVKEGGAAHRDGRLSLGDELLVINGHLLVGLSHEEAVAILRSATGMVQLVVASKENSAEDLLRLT

[11] = target: T6, GRIP1_5, Q9Y3R0
T6 sequence (Q9Y3R0 568-668, limits assumed, looked up): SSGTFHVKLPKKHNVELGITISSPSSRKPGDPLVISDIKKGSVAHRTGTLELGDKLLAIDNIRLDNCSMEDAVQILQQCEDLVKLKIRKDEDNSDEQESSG

[12] = target: PTPN3, P26045
PTPN3, P26045, sequence (P26045 505-587): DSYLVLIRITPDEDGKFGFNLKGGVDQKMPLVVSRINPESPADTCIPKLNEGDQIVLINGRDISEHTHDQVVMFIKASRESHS

[13] = target: T7, LIN7B, Q9HAP6
T7 sequence (Q9HAP6 88-185, limits assumed, looked up): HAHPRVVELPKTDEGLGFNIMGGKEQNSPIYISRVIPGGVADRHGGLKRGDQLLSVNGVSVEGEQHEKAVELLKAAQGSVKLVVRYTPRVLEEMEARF

[14] = target: Inadl_1, Q8NI35
Inadl_1, Q8NI35, sequence (Q8NI35 113-229): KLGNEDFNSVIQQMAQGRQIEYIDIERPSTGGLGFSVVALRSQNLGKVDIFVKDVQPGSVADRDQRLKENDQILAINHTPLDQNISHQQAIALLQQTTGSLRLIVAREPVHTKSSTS

[15] = target: SNX27, Q96L92
[16] = target: Inadl_10, Q8NI35
Inadl_10, Q8NI35, sequence (Q8NI35 1673-1763): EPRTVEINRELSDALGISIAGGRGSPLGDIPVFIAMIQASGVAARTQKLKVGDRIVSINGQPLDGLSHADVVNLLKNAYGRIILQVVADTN

[17] = target: NHERF4_1, Q86UT5-2
NHERF4_1, Q86UT5-2, sequence (Q86UT5 other isoform, or with tags, fused parts or gaps): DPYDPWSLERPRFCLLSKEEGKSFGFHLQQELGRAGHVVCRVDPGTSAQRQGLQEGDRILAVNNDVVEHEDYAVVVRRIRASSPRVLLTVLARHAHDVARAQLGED

[18] = target: LAP2, Q96RT1
LAP2, Q96RT1, sequence (Q96RT1 other isoform, or with tags, fused parts or gaps): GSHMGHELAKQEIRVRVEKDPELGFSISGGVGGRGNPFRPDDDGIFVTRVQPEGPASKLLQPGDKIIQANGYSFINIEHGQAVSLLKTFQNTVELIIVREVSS

[19] = target: FRMPD3, Q5JV73
FRMPD3, Q5JV73, sequence (Q5JV73 12-100): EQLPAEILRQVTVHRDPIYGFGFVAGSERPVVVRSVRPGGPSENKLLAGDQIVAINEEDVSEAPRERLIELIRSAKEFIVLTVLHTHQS

[20] = target: T8, APBA1_1, Q02410
T8 sequence (Q02410 651-752, limits assumed, looked up): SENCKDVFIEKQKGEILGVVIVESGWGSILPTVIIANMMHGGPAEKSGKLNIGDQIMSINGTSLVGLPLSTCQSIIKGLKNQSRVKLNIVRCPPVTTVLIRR

[21] = target: TJP1_3, Q07157
TJP1_3, Q07157, sequence (Q07157 416-512): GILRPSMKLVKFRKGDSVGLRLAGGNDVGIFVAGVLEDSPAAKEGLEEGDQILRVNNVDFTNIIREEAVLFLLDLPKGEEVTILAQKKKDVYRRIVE

[22] = target: PICK1, Q9NRD5
PICK1, Q9NRD5, sequence (Q9NRD5 17-115): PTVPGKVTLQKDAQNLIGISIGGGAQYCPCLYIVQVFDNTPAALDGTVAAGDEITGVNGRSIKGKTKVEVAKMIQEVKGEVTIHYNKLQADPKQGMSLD

[23] = target: T9, NHERF3_1, Q5T2W1
T9 sequence (Q5T2W1 4-100, limits assumed, looked up): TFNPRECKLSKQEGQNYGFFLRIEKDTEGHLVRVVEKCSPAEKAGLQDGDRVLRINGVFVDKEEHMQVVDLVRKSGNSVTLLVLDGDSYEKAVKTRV

[24] = target: TJP2_1, Q9UDY2
TJP2_1, Q9UDY2, sequence (Q9UDY2 24-128): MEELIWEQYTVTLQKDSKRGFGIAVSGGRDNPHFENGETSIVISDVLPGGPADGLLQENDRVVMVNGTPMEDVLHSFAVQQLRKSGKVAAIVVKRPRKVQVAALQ

[25] = target: PDLIM1, O00151
PDLIM1, O00151, sequence (O00151 1-87): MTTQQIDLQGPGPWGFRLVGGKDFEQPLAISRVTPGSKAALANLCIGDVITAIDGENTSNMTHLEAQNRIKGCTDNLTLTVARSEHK

[26] = target: T10, SIPA1L2, Q9P2F8
T10 sequence (Q9P2F8 945-1036, limits assumed, looked up): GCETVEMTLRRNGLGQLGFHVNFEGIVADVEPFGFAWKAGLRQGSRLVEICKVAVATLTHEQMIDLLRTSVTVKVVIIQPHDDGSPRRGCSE

[27] = target: T11, MPDZ_5, O75970
T11 sequence (O75970 695-796, limits assumed, looked up): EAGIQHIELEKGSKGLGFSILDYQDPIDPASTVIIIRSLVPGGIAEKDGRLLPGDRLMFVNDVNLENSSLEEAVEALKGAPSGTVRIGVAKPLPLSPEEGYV

[28] = plain residues with an end cap or a label only (N-terminal biotin on a linker: ttds)
[29] = plain residues with an end cap or a label only (N-terminal biotin on a linker: ado-ado)
[30] = plain residues with an end cap or a label only (N-terminal biotin on a linker: ahx)

pKd [1, 28]: below the threshold
pKd [2, 28]: 3.93
pKd [3, 28]: below the threshold
pKd [4, 28]: 4.02
pKd [5, 28]: below the threshold
pKd [6, 28]: below the threshold
pKd [7, 28]: below the threshold
pKd [8, 28]: 4.38
pKd [9, 28]: 4.38
pKd [10, 28]: 4.93
pKd [11, 28]: below the threshold
pKd [12, 28]: 4.24
pKd [13, 28]: below the threshold
pKd [14, 28]: below the threshold
pKd [15, 28]: 3.53
pKd [16, 28]: below the threshold
pKd [17, 28]: below the threshold
pKd [18, 28]: 3.88
pKd [19, 28]: below the threshold
pKd [20, 28]: below the threshold
pKd [21, 28]: below the threshold
pKd [22, 28]: below the threshold
pKd [23, 28]: 4.31
pKd [24, 28]: below the threshold
pKd [25, 28]: below the threshold
pKd [26, 28]: below the threshold
pKd [27, 28]: 3.52
B1: GDA, Q9Y2T3 (peptide)
chain: KQVVPFSSSV

pKd [1, 28]: below the threshold
pKd [2, 28]: below the threshold
pKd [3, 28]: below the threshold
pKd [4, 28]: 4.31
pKd [5, 28]: below the threshold
pKd [6, 28]: below the threshold
pKd [7, 28]: below the threshold
pKd [8, 28]: 4.49
pKd [9, 28]: 4.18
pKd [10, 28]: 4.12
pKd [11, 28]: below the threshold
pKd [12, 28]: 4.44
pKd [13, 28]: 3.77
pKd [14, 28]: below the threshold
pKd [15, 28]: 4.7
pKd [16, 28]: below the threshold
pKd [17, 28]: 3.6
pKd [18, 28]: 3.8
pKd [19, 28]: below the threshold
pKd [20, 28]: below the threshold
pKd [21, 28]: below the threshold
pKd [22, 28]: below the threshold
pKd [23, 28]: 4.55
pKd [24, 28]: below the threshold
pKd [25, 28]: below the threshold
pKd [26, 28]: below the threshold
pKd [27, 28]: below the threshold
B2: ARHGAP6, O43182 (peptide)
chain: NPDALPETLV

pKd [1, 29]: below the threshold
pKd [2, 29]: below the threshold
pKd [3, 29]: below the threshold
pKd [4, 29]: below the threshold
pKd [5, 29]: below the threshold
pKd [6, 29]: 3.79
pKd [7, 29]: below the threshold
pKd [8, 29]: below the threshold
pKd [9, 29]: below the threshold
pKd [10, 29]: below the threshold
pKd [11, 29]: below the threshold
pKd [12, 29]: below the threshold
pKd [13, 29]: below the threshold
pKd [14, 29]: below the threshold
pKd [15, 29]: 3.61
pKd [16, 29]: below the threshold
pKd [17, 29]: below the threshold
pKd [18, 29]: below the threshold
pKd [19, 29]: below the threshold
pKd [20, 29]: below the threshold
pKd [21, 29]: below the threshold
pKd [22, 29]: 4.17
pKd [23, 29]: below the threshold
pKd [24, 29]: 3.56
pKd [25, 29]: below the threshold
pKd [26, 29]: below the threshold
pKd [27, 29]: below the threshold
B3: U2AF2, P26368 (peptide)
chain: PDSYHRRDFW

pKd [1, 30]: below the threshold
pKd [2, 30]: below the threshold
pKd [3, 30]: below the threshold
pKd [4, 30]: 5.48
pKd [5, 30]: below the threshold
pKd [6, 30]: below the threshold
pKd [7, 30]: 4.09
pKd [8, 30]: 4.75
pKd [9, 30]: 4.49
pKd [10, 30]: 5.95
pKd [11, 30]: below the threshold
pKd [12, 30]: 4.94
pKd [13, 30]: below the threshold
pKd [14, 30]: below the threshold
pKd [15, 30]: 5.15
pKd [16, 30]: below the threshold
pKd [17, 30]: below the threshold
pKd [18, 30]: 5.73
pKd [19, 30]: below the threshold
pKd [20, 30]: below the threshold
pKd [21, 30]: 3.62
pKd [22, 30]: below the threshold
pKd [23, 30]: below the threshold
pKd [24, 30]: 4.77
pKd [25, 30]: 3.55
pKd [26, 30]: below the threshold
pKd [27, 30]: below the threshold
B4: ARVCF, O00192 (peptide)
chain: AKPQPVDSWV

pKd [1, 30]: below the threshold
pKd [2, 30]: 3.48
pKd [3, 30]: below the threshold
pKd [4, 30]: 4.55
pKd [5, 30]: below the threshold
pKd [6, 30]: below the threshold
pKd [7, 30]: below the threshold
pKd [8, 30]: 4.37
pKd [9, 30]: 4.52
pKd [10, 30]: 4.51
pKd [11, 30]: below the threshold
pKd [12, 30]: 4.2
pKd [13, 30]: below the threshold
pKd [14, 30]: below the threshold
pKd [15, 30]: 4.36
pKd [16, 30]: below the threshold
pKd [17, 30]: below the threshold
pKd [18, 30]: 3.59
pKd [19, 30]: below the threshold
pKd [20, 30]: below the threshold
pKd [21, 30]: below the threshold
pKd [22, 30]: below the threshold
pKd [23, 30]: 3.88
pKd [24, 30]: below the threshold
pKd [25, 30]: below the threshold
pKd [26, 30]: below the threshold
pKd [27, 30]: below the threshold
B5: DLL1, O00548 (peptide)
chain: KDECVIATEV
